Where two headings read alike, the source gives them in different places.
T1: recombinant human CD25 his tagged (UniProt P01589 22-213)
T1 chain: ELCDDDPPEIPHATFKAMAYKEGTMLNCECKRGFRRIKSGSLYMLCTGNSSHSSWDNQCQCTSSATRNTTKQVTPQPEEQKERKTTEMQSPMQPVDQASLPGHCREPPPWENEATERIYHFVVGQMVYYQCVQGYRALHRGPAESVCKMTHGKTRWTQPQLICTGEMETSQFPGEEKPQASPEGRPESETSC


Assays:
[1] = target: T1, recombinant human CD25 his tagged; assay: SPR (Biacore 2000)
[2] = target: T1, recombinant human CD25 his tagged; assay: SPR (Biacore 2000)

| Kd [1] [nM] | Kd [2] [nM] | Binder |
| --- | --- | --- |
| 6.1 | – | Antibody 3 (antibody, V domains shown) VH: EVQLLESGGGLVQPGGSLRLSCAASGFTFSSYGMSWVRQAPGKGLELVSTINGYGDTTYYPDSVKGRFTISRDNAKNTLYLQMNSLRAEDTAVYFCARDRDYGNSYYYALDYWGQGTLVTVSS VL: EIVLTQSPGTLSLSPGERATLSCRASSSVSFMHWLQQKPGQAPRPLIYATSNLASGIPDRFSGSGSGTDYTLTISRLEPEDFAVYYCQQWSSNPPAFGQGTKLEIK |
| 5.5 | – | Antibody 4 (antibody, V domains shown) VH: EVQLLESGGGLVQPGGSLRLSCAASGFTFSSYGMSWVRQAPGKGLELVSTINGYGDTTYYPDSVKGRFTISRDNAKNTLYLQMNSLRAEDTAVYFCARDRDYGNSYYYALDYWGQGTLVTVSS VL: QIVLTQSPGTLSLSPGERATLSCRASSSVSFMHWLQQKPGQSPRPLIYATSNLASGIPDRFSGSGSGTDYTLTISRLEPEDFAVYYCQQWSSNPPAFGQGTKLEIK |

The next lines start with the binder.

| Binder | Kd [1] [nM] | Kd [2] [nM] |
| --- | --- | --- |
| Antibody 1 (antibody, V domains shown) VH: EVQLLESGGGLVQPGGSLRLSCAASGFTFSSYGMSWVRQAPGKGLELVSTINGYGDTTYYPDSVKGRFTISRDNSKNTLYLQMNSLRAEDTAVYYCARDRDYGNSYYYALDYWGQGTLVTVSS VL: EIVLTQSPGTLSLSPGERATLSCRASSSVSFMHWLQQKPGQAPRPLIYATSNLASGIPDRFSGSGSGTDYTLTISRLEPEDFAVYYCQQWSSNPPAFGQGTKLEIK | – | 4.7 |
| Antibody 2 (antibody, V domains shown) VH: EVQLLESGGGLVQPGGSLRLSCAASGFTFSSYGMSWVRQAPGKGLELVSTINGYGDTTYYPDSVKGRFTISRDNSKNTLYLQMNSLRAEDTAVYYCARDRDYGNSYYYALDYWGQGTLVTVSS VL: QIVLTQSPGTLSLSPGERATLSCRASSSVSFMHWLQQKPGQSPRPLIYATSNLASGIPDRFSGSGSGTDYTLTISRLEPEDFAVYYCQQWSSNPPAFGQGTKLEIK | – | 6.1 |

Reference: patent US20210040221A1 (published 2021)
